# Source: the nanobody polyreactivity screen of Harvey et al. (2022)
# Assay: yeast display, Sf9 membrane polyspecificity reagent, FACS + sequencing; frameworks hold sequencing errors
# Procedure, shortened: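 Polyreactivity labels are assigned by the sorting gate from which each nanobody was recovered. The gates were low and high (top ~1%), set on anti-HA fluorescence for expression and streptavidin fluorescence for reagent binding. Before sorting, galactose-induced (36–48 hours) yeast display cells were stained for 1 hour at 4 °C with 10% biotinylated, detergent-solubilized Sf9 membrane reagent.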
row,Sequence,polyreactivity (PSR sort gate)
1,QFQLVESGGGLVQAGGSLRLSCAASGFTISWNTMGWYRQAPRKERELVATISGSGGRTYYADSVKGRFTISRDNAKNTVYFQMNSMKPEDTAVYYCAARYVLGGQGTSRRVRGGYWGQGTQLTVSS,high polyreactivity
2,QVHLVESGGGLVQAGGSLRLSCADSGTTFHKYAMGWYRQAPGTERELVARISVGGDSTYYADSVKGRFTISRDNAKNTDYLQIISLKPEDTAVYYCAKVRYLVFLYPPRYYYWGQGTEVTVSS,low polyreactivity
3,QVQLVESGGGLVQAGGSLRLSCAASGRIFPWYTMGWYRQAPGKERELVAAITSGGNTDYADSVKGRFTISRDNAKNTVYLQMNSLKPEDTAVYYCAAGGYPGTTYYGYDYWGQGTQVTVSS,low polyreactivity
4,QVQLVESGGGLVQAGGRLRISCAASGSTFYFNAMGWYRQAPGKERELVAAITRGGSTYADSVKGRFTISRDNAKYTVYLQMNSMKPEDTAVYYCNAVYGVYDFIYWGQGTQVTVSS,low polyreactivity
5,QVQLVESGGGLVQAGGSLRLSCAASGRTFQSNGMGWYRQAPGKERELVAAITWSSGTTYYADSVKGRFTISRDNAKNTVYLQMNSLKPEDTAVYYCAADWGHWNSLFYSGFGYWGQGTQVTVSS,low polyreactivity
6,QVQLVESGGGLVQAGGSLRLSCAASGSIFWWNAMGWYRQAPGKERELVARITRGGTTYYADSVKGRFTISRDNAKNTVYLQMNSLKPEDTAVYSCNAVSGWSRYDFWGQGSQVTVSS,low polyreactivity
7,QVQLVESGGGLVQAGGSLRLSCAAYGYIFIRNAMGCYRQAPGKERELVAAISWTGGNTYYADSVKGRFTISRDNAKNTVYLQMNSLIPEDTAVYYCAAQRSVFKSFRTTYVSYDYWGQGTQVTVSS,high polyreactivity
8,QVQLVESGGGLVQAGGSIRLICAASGFTFSRYAMGWYRQAPGKERELVAVISSSGSRTYYADSVKGRFTISRDNAKNTVYLQMNSLKPEDTAVYYCAAKSRPRYYGTEPFDSWGQGTQVTVSS,high polyreactivity
9,QVQLVESGGGLVQAGGSLRLSCAASGSTLAQYAMGWYRQAPGKERELVAAISRRGASTYYADSVKGRFTISRDNAKNTGYLQMNSLKPEDTAVYYCNAVRGEKMGYWGQGTQVTVSS,high polyreactivity
10,QVQLVESGGGLVQAGGSLRLTCAASGFIFWANAMGWYRPAPGKERELVAAIRYSGGRTYYADSVKGRYTISRDNAKNTVFLQKNSLKPEDTAVYYCAKEYKKYGGFVVENDYWGQGTQVNVSS,low polyreactivity
11,QVQLVESGGALVQAGGSLRLSCAASGRIFRGYAMGWYRQAPGKERELVAAISSRGSRTYYADSVKGPFTISRDNAKNTVYLQMNSLKPEDTAVYYCAADVPGVTTSYAPYDSEYWGQGSQVTVSS,high polyreactivity
12,QVQHVESGGGLDQAGGRLRLSCAASGFTFARNAMGWYRQAPGKDRELVAAINRSGGSTYYADSVKGRFTISRDNAKNTVYLQMNSLKPEDTAVYYCNAPYAQFTSGYDYWGQGTQVTVSS,high polyreactivity
13,QVQLVESGGGLVQEGGSLRLSCAASGRTFDSYTMGWYRPAPGKQRELVADITFTGGSTYYADTVKGRFTISRDNAKYIVFLQMNSLKPEDTAVYYCNADREYKWYFRYDYWGQGTQVNVSS,low polyreactivity
14,QVQLVESRGGLVQAGGSLRLSSAASGFTFRYYLMGWYRQAPRKERELVAAITWSGGTTNYADSVKGRFTISRDNAKNSVYLQMNSLKPEDTAVYYCNAARSRGANRVPPYRLYYWGQGTQVTVSS,low polyreactivity
15,QVQLVESGGGLVQAGGRLRLSCAASGNTFYLNAIGWYRQAPGKERELVAAITIRGDSTYYADSVKGRFTISRDNAKNTVYLQMISLKPEDTAVYSCAAPWAWNTGYRVYYGGQGTQVTVSS,high polyreactivity
16,QVQLVESGGGLVQAGGSLRLSCAASGSTFYYYAMGWYRPAPGKEREFVASISSRGTSTYYADSVKGRFTISRDNAKNTVYIQMISLKPEDTAVDYGAARVWGPTRAYDYWGQGTQVTVSS,high polyreactivity
17,QVQLVESGGGLVQAGGSLRLSCAASGRTFQLYAMGWYRQAPGKERDLVAAISARGGSTYYADSVKGRFTISRDNAKNTVYLQMNSLKPEDTAVYYCNADYNVVLSRVIYARGYWGQGTQVTVSS,high polyreactivity
